Data reported in paper PMC6189696, “Choline sulfatase from Ensifer (Sinorhizobium) meliloti: Characterization of the unmodified enzyme” (Biochemistry and Biophysics Reports, 2015).
One block for each molecule: values may come before it.

Tests used:
[1] = molecular target: T1, choline-O-sulfatase (COS) (Sinorhizobium meliloti, UniProt O69787); test: spectrophotometric pNPS hydrolysis, […] nm; assay type: biochemical
T1 construct: gene betC; full length, C-terminal His6 tag kept, pET26b+, codon-optimized gene, E. coli BL21(DE3); 59 kDa, homodimer (123 kDa); active-site Cys54 unmodified (no formylglycine)

[2] = molecular target: T1, choline-O-sulfatase (COS); test: isothermal titration calorimetry, multiple injections; assay type: biochemical; conditions: substrate inhibition constant, second site; 200 mM Tris-HCl pH 7.5, 500 mM NaCl, 25 °C; enzyme without FGly
Excerpt: (§1) isothermal titration calorimetry, multiple injections on choline-O-sulfatase (COS)

purified protein [3] = substrate: Cc1cc(=O)oc2cc(OS(=O)(=O)O)ccc12; test: purified protein; assay type: biochemical, Sinorhizobium meliloti; conditions: 200 mM Tris-HCl pH 7.5, 500 mM NaCl, 25 °C, 1-20 mM substrate, no saturation reached, enzyme without FGly
purified protein [4] = substrate: O=[N+]([O-])c1ccc(OS(=O)(=O)O)cc1; test: purified protein; assay type: biochemical, Sinorhizobium meliloti; conditions: 200 mM Tris-HCl pH 7.5, 500 mM NaCl, 25 °C, 1-80 mM substrate, no saturation reached, enzyme without FGly
[5] = substrate: C[N+](C)(C)CCOS(=O)(=O)[O-]; test: isothermal titration calorimetry, multiple injections; assay type: biochemical, Sinorhizobium meliloti; conditions: 200 mM Tris-HCl pH 7.5, 500 mM NaCl, 25 °C, fit with substrate inhibition, enzyme without FGly
Excerpt: as §1

[6] = molecular target: the molecule itself; test: SEC; analytical gel filtration on Superdex 200 10/300 GL, non-denaturing conditions, calibrated with Bio-Rad Gel Filtration Standard (1.35-670 kDa)

Ki [1]: 57.8 mM
Molecule: C[N+](C)(C)CCO [choline]

Molecule: C[N+](C)(C)CCOS(=O)(=O)[O-] [choline-O-sulfate]
Ki (mM) ^a [2]: 11.4 ± 1.1 mM

B1: Ensifer (Sinorhizobium) meliloti choline-O-sulfatase (enzyme, UniProt O69787 1-512, looked up)
chain: MTTGKPNILIIMVDQLNGKLFPDGPADFLHAPNLKALAKRSARFHNNYTSSPLCAPARASFMAGQLPSRTRVYDNAAEYQSSIPTYAHHLRRAGYYTALSGKMHFVGPDQLHGFEERLTTDIYPADFGWTPDYRKPGERIDWWYHNLGSVTGAGVAEITNQMEYDDEVAFLANQKLYQLSRENDDESRRPWCLTVSFTHPHDPYVARRKFWDLYEDCEHLTPEVGAIPLDEQDPHSQRIMLSCDYQNFDVTEENVRRSRRAYFANISYLDEKVGELIDTLTRTRMLDDTLILFCSDHGDMLGERGLWFKMNFFEGSARVPLMIAGPGIAPGLHLTPTSNLDVTPTLADLAGISLEEVRPWTDGVSLVPMVNGVERTEPVLMEYAAEASYAPLVAIREGKWKYVYCALDPEQLFDLEADPLELTNLAENPRGPVDQATLTAFRDMRAAHWDMEAFDAAVRESQARRWVVYEALRNGAYYPWDHQPLQKASERYMRNHMNLDTLEESKRYPRGE
notes: choline-O-sulfatase (betC gene product) of Ensifer (Sinorhizobium) meliloti, GenBank AAC13371.1; gene codon optimized for E. coli and subcloned in pET26b+; expected 59 kDa with the His6-tag; Active-site Cys54 is unmodified (no formylglycine) as expressed in E. coli; two of the six cysteines form a disulfide bridge; also called COS; choline sulfatase; source: E. coli BL21 (DE3), purified (His-Trap …)
Km (purified protein [3]): 11.8 ± 1.4 mM
kcat (purified protein [3]): 0.043 ± 0.007 s⁻¹
kcat/Km (purified protein [3]): 3.64 ± 0.73 M⁻¹ s⁻¹
Km (purified protein [4]): 75.8 ± 15.0 mM
kcat (purified protein [4]): 0.035 ± 0.004 s⁻¹
kcat/Km (purified protein [4]): 0.46 ± 0.11 M⁻¹ s⁻¹
Km [5]: 11.1 ± 1.0 mM
kcat [5]: 0.27 ± 0.02 s⁻¹
kcat/Km [5]: 24.3 ± 2.84 M⁻¹ s⁻¹
stoichiometry N [6]: 2
